Molecular target: TBC1D9 (UniProt Q6ZT07)
Assay: co-IP of GFP-TBK1 and FLAG-TBC1D9
Settings: reference: GFP-TBK1 wild type; sites S172

Substance: TBK1 (from UniProt Q9UHD2) GFP-TBK1 S172A
- binding against the reference: lost
